The values below come from patent US7304127.

Values joined by “and” are separate entries in the source; they are usually repeats but may differ in a detail not shown here. Equal values may be shown once.

In the assay the target is HIV-1LAI envelope gp120 labeled with radioactive iodine (HIV-1 LAI), P03377. The assay is described as follows: 125I-gp120, peptide array.
On to VSSPIYDINYYTSEPCQK (modifications not checked) [CCR5 5-22], for which the counts minus background (counts per 20 min) came out at 383.
Next, AQHALTSVSRGSSLKILS (modifications not checked) [CXCR4 313-330]: 147; SLKILSKGKRGGHSSVST (modifications not checked) [CXCR4 325-342]: 285.
To LTDVFLVNLPLADLVFVC (modifications not checked) [STRL33 65-82] belongs 234 and 336.
Next, TDIYLLNLAISDLFFLLT (modifications not checked) [CCR5 65-82]: 38.
In the case of ENTVHKWISITEALAFFH (modifications not checked) [CXCR4 277-294], the counts minus background (counts per 20 min) was 315.
Next, LTSVSRGSSLKILSKGKR (modifications not checked) [CXCR4 317-334]: 183; SITEALAFFHCCLNPILY (modifications not checked) [CXCR4 285-302]: 188.
To SRGSSLKILSKGKRGGHS (modifications not checked) [CXCR4 321-338] belongs 169.
To FLVNLPLADLVFVCTLPF (modifications not checked) [STRL33 69-86] belongs 70.5 and 51.5; to PFWAYAGIHEWVFGQVMC (modifications not checked) [STRL33 85-102], 7260 and 7540.
Consider LSKGKRGGHSSVSTESES (modifications not checked) [CXCR4 329-346], for which the counts minus background (counts per 20 min) was found to be 185.
Next, LKSMTDIYLLNLAISDLF (modifications not checked) [CCR5 61-78]: 210; DYHEDYGFSSFNDSSQEE (modifications not checked) [STRL33 5-22]: 3360 and 3690; AFLQFSKVFLPCMYLVVF (modifications not checked) [STRL33 25-42]: 1420 and 1360.
To HSSVSTESESSSFHSS (modifications not checked) [CXCR4 337-352] belongs 103; to SSFNDSSQEEHQAFLQFS (modifications not checked) [STRL33 13-30], 2690 and 2760; to GCEFENTVHKWISITEAL (modifications not checked) [CXCR4 273-290], 264.
To GLVGNSLVLVISIFYHKL (modifications not checked) [STRL33 45-62] belongs 164 and 95.5; to KRGGHSSVSTESESSSFH (modifications not checked) [CXCR4 333-350], 167.
For FHCCLNPILYAFLGAKFK (modifications not checked) [CXCR4 293-310], the counts minus background (counts per 20 min) was 123.
Next, LLNLAISDLFFLLTVPFW (modifications not checked) [CCR5 69-86]: 144; LFFLLTVPFWAHYAAAQW (modifications not checked) [CCR5 77-94]: 173.
Next, HKWISITEALAFFHCCLN (modifications not checked) [CXCR4 281-298]: 163; DSSQEEHQAFLQFSKVFL (modifications not checked) [STRL33 17-34]: 870 and 2150; LYAFLGAKFKTSAQHALT (modifications not checked) [CXCR4 301-318]: 156.
Turning to MAEHDYHEDYGFSSFNDS (modifications not checked) [STRL33 1-18], the counts minus background (counts per 20 min) was 1180 and 1320.
Regarding IIKQGCEFENTVHKWISI (modifications not checked) [CXCR4 269-286], the counts minus background (counts per 20 min) was 106.
To NSLVLVISIFYHKLQSLT (modifications not checked) [STRL33 49-66] belongs 1260 and 1380; to LTVPFWAHYAAAQWDFGN (modifications not checked) [CCR5 81-98], 306.
On to LNPILYAFLGAKFKTSAQ (modifications not checked) [CXCR4 297-314], for which the counts minus background (counts per 20 min) came out at 274.
On to LGAKFKTSAQHALTSVSR (modifications not checked) [CXCR4 305-322], for which the counts minus background (counts per 20 min) amounted to 200.
Next, DYGFSSFNDSSQEEHQAF (modifications not checked) [STRL33 9-26]: 8580 and 8910.
To DLVFVCTLPFWAYAGIHE (modifications not checked) [STRL33 77-94] belongs 1120 and 1060; to FKTSAQHALTSVSRGSSL (modifications not checked) [CXCR4 309-326], 173; to MYLVVFVCGLVGNSLVLV (modifications not checked) [STRL33 37-54], 168 and 236.
Next, ALAFFHCCLNPILYAFLG (modifications not checked) [CXCR4 289-306]: 181; EEHQAFLQFSKVFLPCMY (modifications not checked) [STRL33 21-38]: 2320 and 1820; AISDLFFLLTVPFWAHYA (modifications not checked) [CCR5 73-90]: 41.
As to LPLADLVFVCTLPFWAYA (modifications not checked) [STRL33 73-90], the counts minus background (counts per 20 min) is 558 and 960.
Consider VCTLPFWAYAGIHEWVFG (modifications not checked) [STRL33 81-98], for which the counts minus background (counts per 20 min) is 1820 and 1750.
Regarding LVISIFYHKLQSLTDVFL (modifications not checked) [STRL33 53-70], the counts minus background (counts per 20 min) is 1620 and 1780.
Next, IFYHKLQSLTDVFLVNLP (modifications not checked) [STRL33 57-74]: 1280 and 1260.
